Assay results reported in the nanobody polyreactivity screen of Harvey et al. (2022).

experiment: yeast display, Sf9 membrane polyspecificity reagent, FACS + sequencing; frameworks hold sequencing errors
In short: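 In a synthetic yeast display library (Saccharomyces cerevisiae BJ5465), nanobody expression was induced with galactose for 36–48 hours. FACS gates were set low and high (top ~1%) using anti-HA fluorescence for expression and streptavidin fluorescence for binding of the Sf9 membrane reagent. Each polyreactivity label is drawn from the gate of origin.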

| Sequence | polyreactivity (PSR sort gate) |
| --- | --- |
| QVQLVESGGGLVQAGGSLRLSCAASGFIFGGYAMGWYRQAPGKERELVAAISSGGGTTYADSVKGRFTISRDNAKYTVYLQMNSLKPEDTAVYYGAAVTRDYRNDRRRQRYYYWGQGTQVTVSS | high polyreactivity |
| QVQLVESGGGLVQAGGSLRLSCAASGFIFGGYAMGWYRQAPGKERELVAAITWSGGNTYYADSVKGRFTISRDNAKNTVYLQMNSLKPEDTAVYYCAADYWTKYGYWGLGTQVTVSS | low polyreactivity |
| QVQLVESGGGLVQAGGSLRLSCAASGFIFGGYPMGWYRQAPGKERELVAAITIRGGSTSYADSVKGRFTISRDIAMNTVYLQMNSLKPEDSAVYYCNRQSRNAGGYYWGQGTQVTVSS | low polyreactivity |
| QVQLVESGGGLVQAGGSLRLSCAASGFIFGHYAMGWYRQAPGKERELVAGIISSGGSTHYADSVKGRFTISRDNAKNTVYLQMNSLKPEDTAVYFCAADVYRYYAGSRYYYWGQGTQVTVSS | low polyreactivity |
| QVQLVESGGGLVQAGGSLRLSCAASGFIFGINAMGWYRQAPGKERELVAAISKRTGSTYYADSVKGRFTISRDTAKNTVYLQMNSLKPEDTAVYYCNVVRYNGLDKYDYWGQGTQVTVSS | high polyreactivity |
| QVQLVESGGGLVQAGGSLRLSCAASGFIFGIYAMGWYRQAPGKEREFVAAITGSAGSTYYADSVKGRFTISRDNAKNTVYLQMNSLKPEDTAVYYCAAVLRTHRYGGYNYWGQGSQVTVSS | low polyreactivity |
| QVQLVESGGGLVQAGGSLRLSCAASGFIFGLYAMGWYRQAPGKERELVAAISWSGGSTYYADSVKGRFTISRDNAKNTVYLQMNSLKPEDTAVYYCAKRGGYGYEYYYWGQGTQVTVSS | high polyreactivity |
| QVQLVESGGGLVQAGGSLRLSCAASGFIFGLYAMGWYRQAPGKERELVAAITWRGSTYYADSVKGRFTISRDNAKNTVYLQMNSLKPEDTAVYYCNDVRSAYILSNDYWGQGTQVTVSS | high polyreactivity |
| QVQLVESGGGLVQAGGSLRLSCAASGFIFGNYALGWYRQAPWKERELVAGISGTGGSTYYADSVKGRFTISRDNAKNTVYLQMNSLKPEDTAVYYCAARIFKRQSFDYWGQGTQVTVSS | high polyreactivity |
| QVQLVESGGGLVQAGGSLRLSCAASGFIFGPYTMGWYRQAPGKERELVAAINNSGSTYYADSVKGRFTISRDNAKNTVYLQMNSLKPEDTAVYYCAAEPIIFVRYDYWGQGTQVTVSS | low polyreactivity |
| QVQLVESGGGLVQAGGSLRLSCAASGFIFGRNAMGWYRQAPGKERELVAGISSSGVRTFYADSVKGRFTISRDNAKNTVYLQMNSLKPEDTAVYYCATRGRVYPTKYSLDEDYWGQGTQVTVSS | high polyreactivity |
| QVQLVESGGGLVQAGGSLRLSCAASGFIFGRYAMGWYRQAPGKEREFVAAITWRGGNTYYADSVKGRFTISRDNAKNTVYLQMNSLKPEDTAVYYCAKKTAGHPWGPIYDYWGQGTQVTVSS | high polyreactivity |
| QVQLVESGGGLVQAGGSLRLSCAASGFIFGSYAMGWSRQAPGKERELVDAITRGGGNTYYADSVKGRFTISRDNAKNTVYLQMNSLKPEDTAVYYCAAVWGKRGYYYWGQGTQVTVSS | high polyreactivity |
| QVQLVESGGGLVQAGGSLRLSCAASGFIFGSYAMGWYRQAPGKERELVAAITSGTTTYYADSVKGRFTISRDNAKNTVYLQMNSLKPEDTAVYYCAATLIYHYWQLFIISTMGYWGQGTQVTVSS | low polyreactivity |
| QVQLVESGGGLVQAGGSLRLSCAASGFIFGTYAMGWYRHAPGKERELVAAISVGGGSTYYADSVKGRFTISRDNAKNTVYLQMNSLKPEDTAVYYCAAVQLFQKHQITYVANEYWGQGTQVTVSS | low polyreactivity |
| QVQLVESGGGLVQAGGSLRLSCAASGFIFGTYAMGWYRQAPGKERELVAAISVGGGSTYYADSVKGRFTISRDKAKNTVYLQMNSLKPEDTADYYCAAVQLYQKHQITYVAHEYWGQGTQVTVSS | low polyreactivity |
| QVQLVESGGGLVQAGGSLRLSCAASGFIFGTYAMGWYRQAPGKERELVAAITGSGGDTYYADSVKGRFTISRDNAKNTVYLQMNSLKPEDTAVYYCAAVRPPTPSRRREDYWGQGTQVTVSS | low polyreactivity |
| QVQLVESGGGLVQAGGSLRLSCAASGFIFGTYVMGLYRTAPGKERELLAAISESGGRTYYADSVKGRFTISRDNAKNTVYIQMNSLIPEDTAVYYCAKVRHIRFHYYYGYQSYYYWGQGTQVTVSS | high polyreactivity |
| QVQLVESGGGLVQAGGSLRLSCAASGFIFGVNAMGWYRQAPGKERELVAAIRWRGGSTYYADSVKGRFTISRDNAKNTVYLQMNSLKPEDTAVYYCAAARFVGGSGYVRILYYWGQGTQVTVSS | high polyreactivity |
| QVQLVESGGGLVQAGGSLRLSCAASGFIFGVYAMGWYRQAPGKERELVAAISGSGGTTYYADSVKGRFTISRDNAKNTVYLQMISLKPEDTAVYYCNAAYRVRYIVNYDYWGQGTQVTVSS | low polyreactivity |
| QVQLVESGGGLVQAGGSLRLSCAASGFIFGVYAMGWYRQAPGKERELVASISVSGDDTYYADSVKGRFTISRDNAKNTVYLQMNSLKPEDTAVYYCAADYPGGIYYDDYLYDMDYWGQGTQVTVSS | low polyreactivity |
| QVQLVESGGGLVQAGGSLRLSCAASGFIFGVYDMGRYRQAPVKERDLVAAISIDDITNYADSVKGRFTISRDNAKNTVYLHLNSLKPEVTAVYYCAADGRTWWSNLEGEYWGQGTQVTVSS | low polyreactivity |

| Sequence | polyreactivity (PSR sort gate) |
| --- | --- |
| QVQLVESGGGLVQAGGSLRLSCAASGFIFGWYAMGWYRQAPGKERELVAAINWSGTSTYYADSVKGRFTISRDNAKNTVYLQMNILKPEDTAVYYCAAYFQNLPTTGYDYWGQGTQVTVSS | low polyreactivity |
| QVQLVESGGGLVQAGGSLRLSCAASGFIFGWYTMGWYRQAPGKERELVASISRSGGSTYYAESVKARFTISRDNEKNSVYLQMNSQKPEDNPVYYCAKRSLVDAHGYWGQGTQVTVSS | high polyreactivity |
| QVQLVESGGGLVQAGGSLRLSCAASGFIFGYNAMGWYRQAPGKERELVAAMDWSGTSTYYADSVKGRFTISRDNAKNTVYLQMNSLKPEDTAVYYCAKVSRRGIVGYWGQGTQVTVSS | high polyreactivity |
| QVQLVESGGGLVQAGGSLRLSCAASGFIFGYYAMAWYRQAPGKERELVAAITSGTGTNYADSVKGRFTISRDNAKNTVYLQMNSLKPEDTAVYYCAAYYTWLSEFGYWGQGTQVTVSS | low polyreactivity |
| QVQLVESGGGLVQAGGSLRLSCAASGFIFGYYAMGGYRQAPGKERELVATIRQTGGSTRYADSVKGRFTISRDNAKNTVYLQMNSLIPEDTAVYYCAAYKWPSWRTWPYDSWGQGPQVTVSS | high polyreactivity |
| QVQLVESGGGLVQAGGSLRLSCAASGFIFGYYAMGWYRQAPAKERELVAAINWSGGSTYYADSVKGRFTISRDNAKNTVYLQMNSLKPEDTAVYYCAARYPYRRGGQDSYYYWGQGTQVTVSS | high polyreactivity |
| QVQLVESGGGLVQAGGSLRLSCAASGFIFGYYAMGWYRQAPGKERELVAAINGSGGSTYYADSVKGRFTISRDNAKNTVYLQMNSLKPEDTAVYYCNADVVPQYYSWGQGTQVTVSS | low polyreactivity |
| QVQLVESGGGLVQAGGSLRLSCAASGFIFGYYAMGWYRQAPGKERELVAAISKSGTDTYYADSVKGRFTISRDNAKNTVYLQMNSLKPEDTAVYYCNALLRGYSYGYDYWGQGTQVTVSS | high polyreactivity |
| QVQLVESGGGLVQAGGSLRLSCAASGFIFGYYAMGWYRQAPGKERELVAAITSGTGTNYADSVKGRFTISRDNAKNTVYLQMNSLKPEDTAVYYCAAYYTWLSEFGYWGQGTQVTVSS | low polyreactivity |
| QVQLVESGGGLVQAGGSLRLSCAASGFIFGYYAMGWYRQAPGKERELVAAITSGTSTNYADSVKGRFTISRDNAKYTVYLQMNSLKPDDTAVYYCAADRWRRRFYYWGQGTQVTVSS | high polyreactivity |
| QVQLVESGGGLVQAGGSLRLSCAASGFIFHGYALGWYRQAPGKERELVAAITRRGGRTDYADSVKGRFTISRDNAKNTVYLQMNSLKPEDTAVYYCAKRYTATEWHGERDYWGQGTQVTVSS | high polyreactivity |
| QVQLVESGGGLVQAGGSLRLSCAASGFIFHPNTMGWYRPAPGKERELVAGISYSGGITYTDSVKGRFTISRDNAKNTVYLQMNSLQPEDTAVYYFNARTKVAYYRHYYWGQGTQVTVSS | low polyreactivity |
| QVQLVESGGGLVQAGGSLRLSCAASGFIFHRNAMGWYRQAPGKERELVAAITRSSTSTYYADSVKGRFTISRDNAKNTVYLQMNSLKPEDTAVYYCNARYPSADDWGQGTQVTVSS | high polyreactivity |
| QVQLVESGGGLVQAGGSLRLSCAASGFIFHRYAMGWYRQAPGKERELVATITASGGSTYYADSVKGRFTISRDNAKNTVYLQMNSLKPEDTAVYYCAAGSFSRGRRTRQYNFDYWGQGTQVTVSS | high polyreactivity |
| QVQLVESGGGLVQAGGSLRLSCAASGFIFIKYAMGWYRQAPGKERELLAASSFRGGRTYYADSVKGRFTISRDNAKNTVYLQMNSLNPEETAVYYCAAETRDYSEGYYWGQGTQVTVSS | high polyreactivity |
| QVQLVESGGGLVQAGGSLRLSCAASGFIFIQNDMGWYRQAPGKEREFVASISKDGGRTYYADSVKGRFTISRDNAKNTVYLQMNSLKPEDTAVYYCNTYPRGNWGNFVEQDYDYWGQGTQVTVSS | low polyreactivity |
| QVQLVESGGGLVQAGGSLRLSCAASGFIFISNAMGWSRQAPGKERELVARISDTDRTHYADSVKGRFTISRDNAKNTVYLQMNSLKPEDTAVYYCAAYDYNAIEYGYWGQGSQVTVSS | low polyreactivity |
| QVQLVESGGGLVQAGGSLRLSCAASGFIFIYYAMGWYRQAPGKERELVAGITSGGSTNYADSVKGRFTISRDNAKNTVYLQMNSLKPEDTAVYYCAAGSSARWYPRYNYWGQGTQVTVSS | high polyreactivity |
| QVQLVESGGGLVQAGGSLRLSCAASGFIFKFYAMGWYRQAHGKERELVAAISKSGGRTYYADSVKGRFTISRDNAKNTVYLQMNSLKPEDTAVYYCNAPSVGAAFDYWGQGTQVTVSS | high polyreactivity |
| QVQLVESGGGLVQAGGSLRLSCAASGFIFKKYVMGWYRQAPGKERELVAGSSRSGGSTYYADSVKGRFTISRDNAKNTVYVQMNSLKPEDTAVYYCAAYIYQSPTRGGGYWGQGTQVSVSS | high polyreactivity |
| QVQLVESGGGLVQAGGSLRLSCAASGFIFKPYAMGWYRQAPGKERELVAAITVNGGTTYYADSVKGRFTISRDNAKNTVYLQMNSLKPEDTAVYYCNRGRPGGPSWYHYDYWGQGTQGTVSS | high polyreactivity |
